Where two headings read alike, the source gives them in different places.

Data set [1] concerns the molecule itself. Nature of the data set: negative-stain TEM.
The data set “cryo-EM structure” deals with the molecule itself. Nature of the data set: cryo-EM structure.
Data set [2] deals with the molecule itself. Kind of data set: negative-stain TEM. The source holds these as a separate data set.

B1: human paraneoplastic antigen Ma2 (PNMA2), recombinant, wild type (natural protein, UniProt Q9UL42 1-364, looked up)
chain: MALALLEDWCRIMSVDEQKSLMVTGIPADFEEAEIQEVLQETLKSLGRYRLLGKIFRKQENANAVLLELLEDTDVSAIPSEVQGKGGVWKVIFKTPNQDTEFLERLNLFLEKEGQTVSGMFRALGQEGVSPATVPCISPELLAHLLGQAMAHAPQPLLPMRYRKLRVFSGSAVPAPEEESFEVWLEQATEIVKEWPVTEAEKKRWLAESLRGPALDLMHIVQADNPSISVEECLEAFKQVFGSLESRRTAQVRYLKTYQEEGEKVSAYVLRLETLLRRAVEKRAIPRRIADQVRLEQVMAGATLNQMLWCRLRELKDQGPPPSFLELMKVIREEEEEEASFENESIEEPEERDGYGRWNHEGDD
With B1, in “negative-stain TEM [1]”, the binding result is on record as “binds”. The “stoichiometry N” value in the data set “cryo-EM structure” stood at 60.

B2: HA-tagged human PNMA2 secreted by HEK293FT cells (natural protein, UniProt Q9UL42 1-364, looked up)
chain: MALALLEDWCRIMSVDEQKSLMVTGIPADFEEAEIQEVLQETLKSLGRYRLLGKIFRKQENANAVLLELLEDTDVSAIPSEVQGKGGVWKVIFKTPNQDTEFLERLNLFLEKEGQTVSGMFRALGQEGVSPATVPCISPELLAHLLGQAMAHAPQPLLPMRYRKLRVFSGSAVPAPEEESFEVWLEQATEIVKEWPVTEAEKKRWLAESLRGPALDLMHIVQADNPSISVEECLEAFKQVFGSLESRRTAQVRYLKTYQEEGEKVSAYVLRLETLLRRAVEKRAIPRRIADQVRLEQVMAGATLNQMLWCRLRELKDQGPPPSFLELMKVIREEEEEEASFENESIEEPEERDGYGRWNHEGDD
In the case of B2, the binding result in the data set “negative-stain TEM [2]” is recorded as “binds”.

Broadly, the stoichiometry N is the number of molecules, sites or subunits per partner or assembly.

The values above are taken from publication PMC10945824 (Proceedings of the National Academy of Sciences of the …, 2024).
